Source: patent publication US20240018513A1, “SYNTHETIC INTRONS FOR TARGETED GENE EXPRESSION” (FRED HUTCHINSON CANCER CENTER, priority 2020, published 2024)

Columns and labels:
WT K562 cells = assay: Mini-screen: pooled synthetic intron mini-library in HSV-TK, GCV treatment, full-length intron sequencing from genomic DNA; assay type: cell-based; settings: genotype WT (SF3B1+/+) K562; GCV 100 ug/mL; day 6; vector hPGK-PuroR-P2A-HSV-TK
From the text: Therefore, a massively parallel splicing assay was developed to map and functionally interrogate key sequence features within the synthetic intron. First, a pilot mini-library of eight synthetic introns was synthesized, seven of which were much shorter (lengths of 100-158 nt) than the parent synthetic intron (synMTERFD3i1-250), and each with one or more perturbations to potentially critical features (FIG. 2E). This mini-library was cloned into HSV-TK, introduced into WT or SF3B1-mutant K562 cells with a lentiviral vector at a low multiplicity of infection, and treated with GCV. Relative depletion of each construct was measured by high-throughput sequencing of the entire introns from genomic DNA after six days of treatment (TABLE 1).
Each synthetic intron used in the mini-library was ordered individually as a gBlock (Integrated DNA Technologies), consisting of the desired intron flanked by homology arms for cloning (5′ arm: […] (SEQ ID NO:158); 3′ arm: […] (SEQ ID NO:159; TABLE 3). The gBlocks were then mixed in equal proportions before being cloned into hPGK-PuroR-P2A-HSV-TK using a previously published strategy for pooled cloning (Thomas, J. D. et al. RNA isoform screens uncover the essentiality and tumor-suppressor activity of ultraconserved poison exons. Nature genetics 52, 84-94 (2020), incorporated herein by reference in its entirety). This intron mix was then amplified using NEBNext High Fidelity Ready Mix (New England Biolabs) and purified using 1.8×AMPure XP SPRI beads (Beckman Coulter). The backbone for the library was amplified using Q5 polymerase (New England Biolabs). The library was transformed and amplified using Endura ElectroCompetent Cells (Lucigen, 60242-2) and large LB plates. The library was maxiprepped using a Macherey-Nagel MaxiPrep kit (Thermo Fisher Scientific, Cat 740414.10).
WT or SF3B1-mutant K562 cells were infected with lentivirus encoding the mini-library at an MOI of 0.3 and untreated or treated with GCV (100 ug/mL) for 6 days. Genomic DNA was collected at day 6 and the resulting Illumina libraries were sequenced with 2×150 bp reads (Illumina MiSeq). Depletion/enrichment of each construct was estimated as follows. For each sample, reads were normalized to the total reads mapped. The relative fraction of reads mapping to each intron was then estimated by dividing the numbers of normalized reads mapped to an intron by the total reads mapped in the sample. The standard deviation was calculated using the sample proportion P for each intron (σ=sqrt [P(1−P)/n]). A fold-change was calculated for each intron by dividing the proportion of the intron in the treated GCV samples by the fraction of the intron in the untreated samples. Error propagation was used to estimate the standard deviation. The final relative fold-changes were computed by normalizing fold-changes such that the fold-change of synMTERFD3i1-250 in the pilot screen was identical to the experimentally measured fold-change in a single-construct experiment (FIG. 2C, 100 μg/mL of GCV).

[1] = system: WT or SF3B1-mutant K562 cells; assay: K562 xenografts (intravenous), GCV or PBS, bioluminescence and survival; assay type: in vivo, NOD-scid IL2Rgnull (NSG) mice
From the text: FIGS. 4A-4I: Synthetic introns enable mutation-dependent cancer cell targeting in vivo. (4A) Schematic of xenograft experiments with K562 cells expressing Luciferase and HSV-TK interrupted by synMTERFD3i1-150. K562 cells were intravenously injected into sub-lethally irradiated (250 cGy) NOD-scid IL2rgnull (NSG) mice (2M cells/mouse). n=10 (WT) and 9 (SF3B1-mutant) mice per cohort. (4B) Quantification of tumor burden, estimated by whole-body bioluminescent signal. Each point represents a single mouse. (4C) Representative bioluminescence images from cohorts described in (4A). (4D) Survival of mice from cohort described in (4A). p computed with logrank test. Comparisons not illustrated on plot are not significant (p+/+ GCV vs. PBS=0.534; pK700E/+PBS vs.+/+PBS=0.823). The cause of death for the one GCV-treated animal engrafted with an SF3B1-mutant leukemia which died by experiment endpoint was unclear, as this animal had minimal leukemic burden by imaging or necropsy. (4E) Survival curves of NSG mice engrafted with SF3B1 WT (top) or SF3B1 K700E (bottom) MOLM-13 cells expressing Luciferase and HSV-TK interrupted by synMTERFD3i1-150 followed by treatment with either PBS or GCV. pK700E/+ PBS vs. pK700E/+GCV=0.011. n=10 mice/group. (4F) Representative bioluminescence images from cohorts described in (4E). (4G) Tumor volumes of mice engrafted with SF3B1 WT or SF3B1 K700E T47D cells expressing HSV-TK interrupted by synMTERFD3i1-150 followed by treatment with either PBS or GCV. T47D cells were engrafted subcutaneously. Data represented as mean±s.d. n=8 mice/group. (4H) Tumor volumes of mice engrafted with SF3B1 WT MEL285 cells (left) or SF3B1 R625G MEL202 cells (right) expressing HSV-TK interrupted by synthetic intron 6700 (synMTERFD3i1-150 with A>C at −7 nt; A>C at −19 nt) followed by treatment with either PBS or GCV. All cells were engrafted subcutaneously. Data represented as mean±s.d. n=10 mice/group. (4I) Representative gross images of the tumors from (4H) at day 27 post-implantation.
Having identified the key features governing mutation responsiveness, the next step was to test whether synthetic introns permitted mutation-dependent cancer cell killing in vivo. A focus was made on synMTERFD3i1-150 for these experiments, as it served as the parent synthetic intron from which most of the full library was derived. Luciferase-GFP constructs were introduced into WT or SF3B1-mutant K562 cells expressing HSV-TK interrupted by synMTERFD3i1-150, tail vein injections of these cells were performed into NOD-scid IL2Rgnull (NSG) mice. The mice were treated with PBS or GCV and monitored for leukemia burdens with live imaging (FIG. 4A). […]

B1: intron_26: 150 nt MTERFD3 intron 1-derived synthetic intron, deletion 25to125; SEQ ID NO 58/66 (nucleic acid)
DNA 1: GTGAGTCGCCCCCTTCCTCTGCTCCGAGAGGGAAATGGGAATTAGGGTGGTGGCAGAGCCCAAAGAGGCCTTGTAGGCCATGGTAAGGCATTTCTATGTTTTATTTTACTTTGTCTTTATCCTAAAATGCCATTGGCAAGTTTATTGCAG
DNA 2: B1 DNA 1
With B1 the “fold-change (estimated fold-change in intron abundance in gDNA)” value (WT K562 cells) was 1.034, the “survival, p (logrank test)” value ([1]; +/+ (WT) GCV vs. PBS) was 0.534 and the “leukemic burden (whole-body bioluminescent signal)” value ([1]; GCV 80 mg/kg IP three times per week vs PBS) was “immediate and sustained suppression of SF3B1-mutant leukemic burden, with no effects on WT leukemias”. The survival ([1]; GCV- vs PBS-treated SF3B1-mutant leukemias) was “significantly increased survival” and the “survival, p (logrank test)” value ([1]; GCV- vs. PBS-treated SF3B1-mutant leukemias) was 1.7e-4.
